Assay results reported in patent US9113649B2, “Food additive comprising an amidase for detoxifying ochratoxin” (DuPont Nutrition Biosciences ApS, priority 2010, dated 2015).
Like-named read-outs stand apart in the source and are kept apart here.

B1: yeast carboxypeptidase Y: Carboxypeptidase Y from baker's yeast (Saccharomyces cerevisiae) (protein, listed as Saccharomyces cerevisiae)
chain: MKAFTSLLCGLGLSTTLAKAISLQRPLGLDKDVLLQAAEKFGLNLDLDHLLKELDSNVLDAWAQIEHLYPNQVMSLETSTKPKFPEAIKTKKDWDFVVKNDAIENYQLRVNKIKDPKILGIDPNVTQYTGYLDVEDEDKHFFFWTFESRNDPAKDPVILWLNGGPGCSSLTGLFFELGPSSIGPDLKPIGNPYSWNSNATVIFLDQPVNVGFSYSGSSGVSNTVAAGKDVYNFLELFFDQFPEYVNKGQDFHIAGESYAGHYIPVFASEILSHKDRNFNLTSVLIGNGLTDPLTQYNYYEPMACGEGGEPSVLPSEECSAMEDSLERCLGLIESCYDSQSVWSCVPATIYCNNAQLAPYQRTGRNVYDIRKDCEGGNLCYPTLQDIDDYLNQDYVKEAVGAEVDHYESCNFDINRNFLFAGDWMKPYHTAVTDLLNQDLPILVYAGDKDFICNWLGNKAWTDVLPWKYDEEFASQKVRNWTASITDEVAGEVKSYKHFTYLRVFNGGHMVPFDVPENALSMVNEWIHGGFSL
B2: carboxypeptidase A: Carboxypeptidase A from bovine pancreas (Sigma) (protein, listed as Bos taurus)
chain: MQGLLILSVLLGAALGKEDFVGHQVLRITAADEAEVQTVKELEDLEHLQLDFWRGPGQPGSPIDVRVPFPSLQAVKVFLEAHGIRYRIMIEDVQSLLDEEQEQMFASQSRARSTNTFNYATYHTLDEIYDFMDLLVAEHPQLVSKLQIGRSYEGRPIYVLKFSTGGSNRPAIWIDLGIHSREWITQATGVWFAKKFTEDYGQDPSFTAILDSMDIFLEIVTNPDGFAFTHSQNRLWRKTRSVTSSSLCVGVDANRNWDAGFGKAGASSSPCSETYHGKYANSEVEVKSIVDFVKDHGNFKAFLSIHSYSQLLLYPYGYTTQSIPDKTELNQVAKSAVEALKSLYGTSYKYGSIITTIYQASGGSIDWSYNQGIKYSFTFELRDTGRYGFLLPASQIIPTAQETWLGVLTIMEHTLNNLY
B3: PEPAd: a Danisco aspartic acid protease cloned from A. niger (protein)
chain: MHLPQRLVTAACLCASATAFIPYTIKLDTSDDISARDSLARRFLPVPNPSDALADDSTSSASDESLSLNIKRIPVRRDNDFKIVVAETPSWSNTAALDQDGSDISYISVVNIGSDEKSMYMLLDTGGSDTWVFGSNCTSTPCTMHNTFGSDDSSTLEMTSEEWSVGYGTGSVSGLLGKDKLTIANVTVRMTFGLASNASDNFESYPMDGILGLGRTNDSSYDNPTFMDAVAESNVFKSNIVGFALSRSPAKDGTVSFGTTDKDKYTGDITYTDTVGSDSYWRIPVDDVYVGGTSCDFSNKSAIIDTGTSYAMLPSSDSKTLHSLIPGAKSSGSYHIIPCNTTTKLQVAFSGVNYTISPKDYVGATSGSGCVSNIISYDLFGDDIWLLGDTFLKNVYAVFDYDELRVGFAERSSNTTSASNSTSSGTSSTSGSTTTGSSTTTTSSASSSSSSDAESGSSMTIPAPQYFFSALAIASFMLWL
modifications: Aspergillus niger
B4: amidase from Metarhizium anisopliae: putative amidohydrolase from Metarhizium anisopliae (EFZ00058) expressed intracellularly in Trichoderma reesei (protein, listed as Metarhizium anisopliae)
chain: MTRRVIPHSESAESVDDAQHVSGRIYSTGFGIAVRTGQPQSQDDDAETGVKKVFYTIVMTKLLIPGDGEPIKDAALVVKNKIIDWVGRQADLPNEYTEKPHKLHNVPYLMPGLWDCHVHFAGSNGEREAEEGSTGLSFLADHPTTAGARLARGCWDAIQRGYTSMRDLAGFGCEISKAIEDGVIIGPNIYSAGACLSQLAGHGDVFALPAGDALLNLGLASVKAGQFGAGMSCLVDGVDECRRGVRLQIRRGAKCIKVMASGGVLSRDDNPLYAQFSREELDTIVSEAKRMERTVAAHVHGKPGILQAVEAGVTSVEHVSFADQECIDLIKDRGTIFVGTRTIVNLLLDSKGEGMPKKMWEKAKLVGTHSLEGYKKAIKAGCTIALGTDTEPGFNMAIELQYAVEAGMSSLEAIKAATANGPLTVAGQAPLTGQLKAGYEADMIGVCDNPVEDVKVLQKKSNIGWVWKGGKLFKGPGIGPWGEEL
B5: amidase from Aspergillus oryzae: hypothetical protein from Aspergillus oryzae (XP_001826758) expressed intracellularly in Aspergillus niger (protein, listed as Aspergillus oryzae)
chain: MHRMLTDDRLYRVDADLLIPGKGDPIPHGAVVWQCKTIRYAGPRSGVPTEFQGATTTHVPVVMPGMWDCHIHFLGATAATMNAIVDTPQALAGARSVPDLHATVMAGFTSVREVGGYGCDLAKAVGEGRIPGPNIYSSHSAISMTAGHGDVHGVHRDSLLDLCAHGLPLTIADGVPECLLAVRKQLRRGAKVIKVCASGGVVSAIDDPQHQEFSFEELKAIVDEAARARRVVAAHCHGKAGIMNALRAGCRTIEHGSFLDEEAVGLMKEKGAILVATRSVIESGLAMKDLFTPSSYQKLLAVADAHRKAYQLAISRGVTIALGTDQFISSDNPMIGYGRNGHEVRYAVDAGLTPLAAIEAATANGPLTLGYQAPQSGQLKEGYDADIIAVRENPLENVAVLSNSKNVTHVWRGGMLIKS
B6: amidase from Glomerella graminicola: putative amidohydrolase from Glomerella graminicola (EFQ25792) expressed intracellularly in Trichoderma reesei (protein, listed as Glomerella graminicola)
chain: MGGSFRPNYADGPEPPFSPTKKTTLVIIKTSLLIPGDGEPLKDGALVISSKVIAWVGPQSSLPSEYADSPHRSYTVPYLMPGLWDCHAHFGGESPNDDGGNDPYQVFITEHPAASGARLTRGCWLALQRGYTSLRDVAGLGCEVSRAIEDGSIVGPNVYSSGSGLSQLAGHGDIFSLPAGDVLLNLGVSQITPGHFGTHATMIVDGVDECRRAVRLQIRRGAKCIKVMASGGVMSRDDNPNYAQFSAAELETIVEEATRQNRVVAAHVHGKAGILAAINAGVTTLEHASFADRECIDLIKEKGIVYIATRIVVHLLLSTGGKGLPPTVWEKAKLVAKNHMTAYKMAIESGVQIALGTDTGPGYNMATELECAVEAGMSNLEAIKAATANGPLSVGGQAPKTGQLKVGYEADVIGLLQNPVEDVKVLQKVDNVGWVWKGGKLFKGPGVGPWGEEPGVWEDITGVSRLRCTTGY

Key:
[1] = rat, in vivo; cited from earlier work
[2] = type: biochemical; conditions: for ability to degrade ochratoxin A: enzyme screen, 20 h
Experimental: Activity was expressed in % OT-α (product of OTA) area: the area corresponding to the product divided by the total area (peak area of OTA plus OT-α).
The buffers employed in the assay were: 50 mM sodium acetate buffer (pH 4, 4.5, 5 and 5.5); 50 mM MES buffer (pH 6, 6.5 and 7); 0.2M Mops-NaOH) pH7.0), 50 mM Tris-HCl buffer (pH 7.5, 8 and 8.5). Ochratoxin A (OTA) solution (1 mg/mL) was made of 5 mg ochratoxin A (Sigma, ref. 32937) dissolved in ethanol/water (60/40) and stored at −20° C. Screening assays were performed with […] OTA solution and different enzyme concentrations (for example, 0.1-5 mg/ml) in a final volume of 300 μL. Enzymatic reactions were done at 37° C. for 20 h±1 h under constant agitation. Samples were filtered using syringe filter 0.20 μm for HPLC analysis. The HPLC apparatus consisted of a Dionex P580 pump and Dionex ASI-100 autosampler connected to a Dionex RF-2000 fluorescence detector (λex=333 nm; λem=460 nm) and a Dionex UVD340 U UV detector at 257 nm. Elution was through a nucleosil 100-5 C18 column (250×4.6 mm, 5 μm particle size; Chrompack) with water/acetonitrile/acetic acid (100:100:1, v/v/v) at a 0.6 mL/min flow-rate. The column was kept at 30° C. and was connected to guard column (C18, 1 mm, Optimize technologies). The OTA and its degradation products were monitored both by uv at 235 nm and fluorescence (excitation at 278 nm emission at 440 nm).
Thirty enzymes including various lipases, proteases and amdiases were investigated for their ability to degrade ochratoxin A (Table 1). […] To facilitate the comparison of these three enzymes, the protein concentration of PEPAd was determined and enzyme solutions of carboxypeptidase A and Amano™ lipase A were prepared at the same concentration (1 mg/ml). A kinetic of the degradation was carried out (FIG. 1). […] Amano™ lipase A product was a mixture of different enzymes with the dominant activity being lipase. […] Other proteases, lipases and amidases listed in Table 1 were not able to break OTA down (data not shown).

[3] = Abrunhosa et al., Toxins 2010; cited from earlier work
[4] = activity of three fungal amidases on ochratoxin A (intracellular cell-free fraction); type: biochemical; conditions: for Activity on ochratoxin A expressed as ochratoxin A peak area: remaining OTA, 20 μl intracellular cell-free fraction, pH7, 23° C., 17 h
Experimental: The reaction mixture using OTA as substrate consisted of 75 μl phosphate (67 mM, pH7), 5 μl OTA (2.4 μg/ml) and 20 μl intracellular cell-free fraction. The reaction was performed at 23° C. for 17 h and stopped by adding 0.15 ml acetonitrile and analyzed on HPLC with an injection volume of 5 μl.

| Molecule | ability to degrade ochratoxin A ([2]; 37° C.) | Activity on ochratoxin A expressed as ochratoxin A peak area [4] | also measured |
| --- | --- | --- | --- |
| C[C@@H]1Cc2c(Cl)cc(C(=O)N[C@@H](Cc3ccccc3)C(=O)O)c(O)c2C(=O)O1 [OTA, ochratoxin A] | – | – | elimination half-time in the body [1]: 103 h |
| C[C@@H]1Cc2c(Cl)cc(C(=O)O)c(O)c2C(=O)O1 [ochratoxin α] | – | – | elimination half-time in the body [1]: 9.6 h |
| porcine elastase: serine protease elastase from porcine pancreas (Sigma E0258) [reference compound] | showed certain activity with OTA | – | – |
| B1 | showed certain activity with OTA | – | ochratoxin degrading activity [3]: low ochratoxin degradding activity |
| B2 | able to breakdown OTA | – | ochratoxin degrading activity [3]: low ochratoxin degradding activity; conversion of OTA ([2]; after 7 h reaction at 37° C., enzyme 1 mg/ml): full conversion of OTA was obtained |
| B3 | showed an OTA converting activity although this was less efficient | – | conversion of OTA ([2]; after 1 day reaction, 37° C., same protein concentration (1 mg/ml)): full conversion was not reached |
| B4 | – | 0.96 | activity in degrading ochratoxin A (in words) [4]: showed activity in degrading ochratoxin A |
| B5 | – | 8.57 | – |
| B6 | – | 0.68 | – |
